Among the data in PMC3406077 (2012) are response (O.D. (492 nm)) values, retold here.

The chains are these.
B1: wild-type full-length (C24-P237) pallilysin, O83732 H198A (protein)
chain: CFQHGHVPPRRIPPHDTFGALPTAALPSNARDTAAHPSDTADNTSGSSTTTDPRSHGNAPPAPVGGAAQTHTQPPVQTAMRIALWNRATHGEQGALQHLLAGLWIQTEISPNSGDIHPLLFFDREHAEITFSRASVQEIFLVDSAHTHRKTVSFLTRNTAISSIRRRLEVTFESAEVIHVRAVEDVARLKIGSTSMWDGQYTRYHAGPASAPSP
B2: wild-type full-length (C24-P237) pallilysin, O83732 E199A (protein)
chain: CFQHGHVPPRRIPPHDTFGALPTAALPSNARDTAAHPSDTADNTSGSSTTTDPRSHGNAPPAPVGGAAQTHTQPPVQTAMRIALWNRATHGEQGALQHLLAGLWIQTEISPNSGDIHPLLFFDREHAEITFSRASVQEIFLVDSAHTHRKTVSFLTRNTAISSIRRRLEVTFESHAVIHVRAVEDVARLKIGSTSMWDGQYTRYHAGPASAPSP
B3: wild-type full-length (C24-P237) pallilysin, O83732 H202A (protein)
chain: CFQHGHVPPRRIPPHDTFGALPTAALPSNARDTAAHPSDTADNTSGSSTTTDPRSHGNAPPAPVGGAAQTHTQPPVQTAMRIALWNRATHGEQGALQHLLAGLWIQTEISPNSGDIHPLLFFDREHAEITFSRASVQEIFLVDSAHTHRKTVSFLTRNTAISSIRRRLEVTFESHEVIAVRAVEDVARLKIGSTSMWDGQYTRYHAGPASAPSP

The target of this assay is laminin isolated from Engelbreth-Holm-Swarm murine sarcoma basement membrane. Put plainly: ELISA. The settings on record: chain shown with the change; 20 µg protein per well; laminin 0.5 µg per well; parent: est. 3.1; read off a plot. For orientation: ELISA stands for enzyme-linked immunosorbent assay.
Consider B1, for which the response (O.D. (492 nm)) turned out to be 3.1.
With B2, the response (O.D. (492 nm)) is 3.3.
For B3 the value was 3.
